Results as given in patent US10975357B2, “Methods and compositions related to differentiated lung cells” (TRUSTEES OF BOSTON UNIVERSITY, priority 2017, dated 2021).

Assays:
[1] = tested on: NKX2-1+ lung epithelial progenitor cells; assay: SFTPCtdTomato reporter induction in day 15 NKX2-1+ progenitor outgrowth in 3D culture (flow cytometry); type: cell-based, human; details: for further SFTPC induction efficiency with addition of the factor: factor added to differentiation media, FIG. 9B
Method: Purification of NKX2-1+ Lung Progenitors by Cell Sorting. On day 15 of differentiation, cells were incubated at 37° C. in 0.05% trypsin-EDTA (Invitrogen) for 7-15 minutes, until they reached single cell suspension. Cells were then washed in media containing 10% fetal bovine serum (FBS, ThermoFisher), centrifuged at 300g×5 minutes, and resuspended in sort buffer containing Hank's Balanced Salt Solution (ThermoFisher), 2% FBS, 10 μM Y-27632, and 10 uM calcein blue AM (Life Technologies) for dead cell exclusion. Cells not containing the NKX2-1GFP reporter were subsequently stained with CD47-PerCPCy5.5 and CD26-PE antibodies (mouse monoclonal; Biolegend 1:200; 1×10^6 cells in 100 ul) for 30 minutes at 4° C., washed with PBS, and resuspended in sort buffer. Cells were passed through a 40 um strainer prior to sorting (Falcon). Various live cell populations indicated in the text (i.e. GFP+, GFP−, CD47hi/CD26−,CD47lo) were sorted on a high-speed cell sorter (MoFlo Legacy). Directed Differentiation of NKX2-1+ Lung Progenitor Outgrowth into iAEC2s Day 15 cells, either sorted (as described above) or unsorted (dissociated as described above), were resuspended in undiluted growth factor-reduced matrigel (Corning) at a dilution of 50-100 cells/ul, with droplets ranging in size from 20 ul in 96 well plates to 1 ml in 10 cm tissue culture-treated dishes (Corning). Cells in matrigel suspension were incubated at 37° C. for 20-30 minutes, then warm media was added to the plates.
(§1) Where indicated in the text, outgrowth and distal/alveolar differentiation of cells after day 15 was performed in “CK+DCI” medium, consisting of cSFDM base, with 3 μM CHIR99021, 10 ng/mL rhKGF, and 50 nM dexamethasone (Sigma), 0.1 mM 8-Bromoadenosine 3′,5′-cyclic monophosphate sodium salt (Sigma) and 0.1 mM 3-Isobutyl-1-methylxanthine (IBMX) (Sigma) (DCI). Immediately after replating cells on Day 15 10 μM Y-27632 was added to the medium for 24 hours. Additional growth factors or cytokines were added or withdrawn as indicated in the text, including FGF10, TGFb, EGF, OSM (20 ng/ml), TNFa (10 ng/ml), and IL-1b (10 ng/ml) with other concentrations listed in figure legends (FIGS. 9A, 9B).
Alveolosphere Long Term Culture, Dissociation, and Differentiation. […] These spheres were analyzed as follows: Z-stack images of live alveolospheres were taken and processed on a Keyence (Osaka, Japan) BZ-X700 fluorescence microscope. […] To generate single cell suspensions, cell pellets were incubated in 0.05% trypsin and continued through the trypsin-based dissociation protocol described above, after which they could be passaged into fresh matrigel, analyzed by flow cytometry, or sorted as described above. […]

JAK/STAT3 pathway = assay: Cytokine stimulation of PSC-derived alveolospheres, JAK/STAT3 pathway (Western blot phospho-STAT3, SOCS3 RT-qPCR); type: cell-based, human; details: OSM 20 ng/ml
Method: as §1
Reverse Transcriptase Quantitative Real Time Polymerase Chain Reaction (RT-qPCR). RT-qPCR was performed as previously described (Hawkins et al. 2017,). Briefly, RNA was isolated according to manufacturer's instructions using the Qiagen miRNeasy mini kit (Qiagen, Venlo, Netherlands). cDNA was generated by reverse transcription of up to 150 ng RNA from each sample using the Applied Biosystems High-Capacity cDNA Reverse Transcription Kit. […] Relative gene expression was calculated based on the average cycle (Ct) value of the technical triplicates, normalized to 18S control, and reported as fold change (2(−ΔΔCT)), with a fold change of 1 being assigned to undifferentiated (day 0) iPSCs or ESCs. […]

B1: KGF: Recombinant human KGF, agonist of FGF signaling (protein, UniProt P21781 32-194, looked up)
Fibroblast growth factor 7: CNDMTPEQMATNVNCSSPERHTRSYDYMEGGDIRVRRLFCRTQWYLRIDKRGKVKGTQEMKNNYNIMEIRTVAVGIVAIKGVESEFYLAMNKEGKLYAKKECNEDCNFKELILENHYNTYASAKWTHNGGEMFVALNQKGIPVRGKKTKKEQKTAHFLPMAIT
In the case of B1, the “need for initial induction of the tdTomato reporter” value ([1]; component removed from media, FIG. 9A, 9B) is reported as “dispensable” and the “promoting outgrowth of tdTomato+ cells by day 21, combined with CHIR, compared to FGF10+CHIR” value ([1]; day 21, FIG. 9B) is reported as “more consistent”.

B2: FGF10: Recombinant human FGF10 (protein, UniProt O15520 38-208, looked up)
Fibroblast growth factor 10: QALGQDMVSPEATNSSSSSFSSPSSAGRHVRSYNHLQGDVRWRKLFSFTKYFLKIEKNGKVSGTKKENCPYSILEITSVEIGVVAVKAINSNYYLAMNKKGKLYGSKEFNNDCKLKERIEENGYNTYASFNWQHNGRQMYVALNGKGAPRRGQKTRRKNTSAHFLPMVVHS
In the case of B2, the “further SFTPC induction efficiency with addition of the factor” value [1] is reported as “No consistent further SFTPC induction efficiency”.

B3: OSM: Recombinant human OSM, cytokine activating the JAK/STAT3 pathway (protein, UniProt P13725 26-221, looked up)
Oncostatin-M: AAIGSCSKEYRVLLGQLQKQTDLMQDTSRLLDPYIRIQGLDVPKLREHCRERPGAFPSEETLRGLGRRGFLQTLNATLGCVLHRLADLEQRLPKAQDLERSGLNIEDLEKLQMARPNILGLRNNIYCMAQLLDNSDTAEPTKAGRGASQPPTPTPASDAFQRKLEGCRFLHGYHRFMHSVGRVFSKWGESPNRSRR
In the case of B3, the “STAT3 signaling (phosphorylated STAT3 protein, SOCS3 mRNA)” value (JAK/STAT3 pathway) is reported as “significant and rapid activation of STAT3 signaling”.

B4: BMP4: recombinant human BMP4 (protein, UniProt P12644 293-408, looked up)
Bone morphogenetic protein 4: SPKHHSQRARKKNKNCRRHSLYVDFSDVGWNDWIVAPPGYQAFYCHGDCPFPLADHLNSTNHAIVQTLVNSVNSSIPKACCVPTELSAISMLYLDEYDKVVLKNYQEMVVEGCGCR
In the case of B4, the “further SFTPC induction efficiency with addition of the factor” value [1] is reported as “No consistent further SFTPC induction efficiency”.
